Our source for the reduction of PTPMT1 phosphatase activity towards OMFP, compared to FLAG protein alone; MK-STYX incubated with GST-PTPMT1 values is PMC3977970.

This assay deals with T1, GST-PTPMT1 (human) (UniProt Q8WUK0).
T1 sequence: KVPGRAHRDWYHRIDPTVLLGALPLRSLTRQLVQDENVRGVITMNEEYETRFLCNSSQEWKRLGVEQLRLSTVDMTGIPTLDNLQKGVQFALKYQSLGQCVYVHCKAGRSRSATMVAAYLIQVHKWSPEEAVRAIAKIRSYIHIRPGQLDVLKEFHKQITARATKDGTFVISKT

Turning to “FLAG-MK-STYX (from UniProt Q9Y6J8-1 2-313) (natural protein)”, the reduction of PTPMT1 phosphatase activity towards OMFP, compared to FLAG protein alone; MK-STYX incubated with GST-PTPMT1 at 1:1 (51%) to 2:1 (60%) mass ratio is 60%.
